Measurements: the supplement of paper PMC10567573

B1: DCAF4 (parent)
chain: DSHILLCLMGLAETPGCATLLPAS
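Note: lentivirally expressed fusions sorted by FACS into six bins by GFP to DsRed ratio, PSI derived from sequencing read proportions per bin multiplied by bin number.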

Variants of: B1
Experiment: protein stability index of a GFP-peptide fusion (GPS, HEK-293T) (PSI 1-6); higher = more stable
Details: c terminus: a fixed tail appended
In the case of T14W, the protein stability index is reported as 2.89. Variant T14K has a protein stability index of 3.42. G16C showed a protein stability index of 3.37. With G16E the protein stability index was 3.54. With G16M the protein stability index was 2.6. In the case of G16I, the protein stability index is reported as 2.9. Work on G16H yielded a protein stability index of 2.37. With G16R the protein stability index was 2.39. With G16T the protein stability index was 1.99. For G16V, the protein stability index was 2.76. For G16A, the protein stability index was 3.16. G16L gave a protein stability index of 2.05. G16Y showed a protein stability index of 2.65. For G16N, the protein stability index was 2.77. G16D gave a protein stability index of 3.45. Variant G16K has a protein stability index of 1.38. In the case of G16F, the protein stability index is reported as 2.85. In the case of G16Q, the protein stability index is reported as 2.81. For G16P, the protein stability index was 4.04. C17D gave a protein stability index of 1.47. Variant C17S has a protein stability index of 2.81. Variant C17Y has a protein stability index of 2.55. C17R gave a protein stability index of 1.78. In the case of C17E, the protein stability index is reported as 2.63. With C17L the protein stability index was 2.23. Variant C17H has a protein stability index of 2.58. Variant C17A has a protein stability index of 2.98. For C17M, the protein stability index was 2.38. With C17G the protein stability index was 3.08. In the case of C17N, the protein stability index is reported as 1.99. Variant C17T has a protein stability index of 3.4. In the case of C17I, the protein stability index is reported as 2.04. C17W gave a protein stability index of 2.44. Work on C17F yielded a protein stability index of 2.34. For C17P, the protein stability index was 3. Work on C17K yielded a protein stability index of 1.83. In the case of A18S, the protein stability index is reported as 1.6. In the case of A18N, the protein stability index is reported as 2.07. A18Y showed a protein stability index of 2.47. For A18L, the protein stability index was 3.23. Variant A18P has a protein stability index of 2.65. In the case of A18T, the protein stability index is reported as 2.3. Work on A18D yielded a protein stability index of 2.39. With A18R the protein stability index was 3.11. For A18C, the protein stability index was 4.64. With A18M the protein stability index was 3.66. For A18F, the protein stability index was 2.32. With A18V the protein stability index was 1.92. For A18G, the protein stability index was 1.11. A18E showed a protein stability index of 2.31. In the case of A18Q, the protein stability index is reported as 2.02. For A18H, the protein stability index was 2.28. Work on A18I yielded a protein stability index of 2.33. A18K showed a protein stability index of 2.82. For G10S, the protein stability index was 3.06. Variant G10F has a protein stability index of 2.99. In the case of G10M, the protein stability index is reported as 2.95. With G10L the protein stability index was 2.56. In the case of G10T, the protein stability index is reported as 3.51. In the case of G10Q, the protein stability index is reported as 2.23. G10I showed a protein stability index of 3.16. Work on G10H yielded a protein stability index of 3.23. In the case of G10E, the protein stability index is reported as 1.79. With G10K the protein stability index was 3.89. In the case of G10Y, the protein stability index is reported as 2.37. L11R showed a protein stability index of 2.05. For L11M, the protein stability index was 2.42. Work on L11Y yielded a protein stability index of 3.55. Variant L11F has a protein stability index of 2.98. Variant L11P has a protein stability index of 2.59. L11T showed a protein stability index of 2.7. L11S gave a protein stability index of 1.4. With L11Q the protein stability index was 1.66. With L11A the protein stability index was 2.08. Variant L11D has a protein stability index of 1.66. For L11K, the protein stability index was 1.71. With L11C the protein stability index was 2.76. With L11E the protein stability index was 1.3. With L11N the protein stability index was 1.27. For L11G, the protein stability index was 1.6. Work on L11V yielded a protein stability index of 2.65. In the case of L11I, the protein stability index is reported as 1.97. For L11H, the protein stability index was 2.36. L11W gave a protein stability index of 1.8.
